Two molecules from patent US20190309300A1 (TECHNION RESEARCH AND DEVELOPMENT FOUNDATION, published 2019) can be followed below.

This assay has as its target T1, flag tagged full length HDAC4 (human, UniProt P56524 1-1084).
T1 construct: Full length, expressed in transfected cells and immunoprecipitated from lysate; also called Flag-HDAC4; pcDNA HDAC4-flag; not shown: Flag tag
Briefly: co-immunoprecipitation, IP anti-Flag, blot anti-HA (FIG. 7B). On the procedure:
Cultured cells were washed with ice-cold phosphate-buffered saline (PBS) buffer and lysed in buffer containing 50 mM Tris, pH 7.5, 150 mM NaCl, 1 mM EDTA, and 1% NP-40. 400 μg of protein was immunoprecipitated with anti-Flag (Sigma-Aldrich), or IgG antibodies (negative control) and protein A/G agarose beads (Santa Cruz Biotechnology, Inc.) as described previously [Kehat I, et al., Modulation of chromatin position and gene expression by HDAC4 interaction with nucleoporins. J Cell Biol 2011, 193, 21-29]. Beads were washed three times with buffer and suspended in 30 μl of Laemmli buffer. Proteins were separated on an SDS gel, blotted, and detected with primary antibody recognizing HA (Santa Cruz Biotechnology, Inc. sc-805) or flag (Sigma-Aldrich).

T1 sequence (P56524 whole entry): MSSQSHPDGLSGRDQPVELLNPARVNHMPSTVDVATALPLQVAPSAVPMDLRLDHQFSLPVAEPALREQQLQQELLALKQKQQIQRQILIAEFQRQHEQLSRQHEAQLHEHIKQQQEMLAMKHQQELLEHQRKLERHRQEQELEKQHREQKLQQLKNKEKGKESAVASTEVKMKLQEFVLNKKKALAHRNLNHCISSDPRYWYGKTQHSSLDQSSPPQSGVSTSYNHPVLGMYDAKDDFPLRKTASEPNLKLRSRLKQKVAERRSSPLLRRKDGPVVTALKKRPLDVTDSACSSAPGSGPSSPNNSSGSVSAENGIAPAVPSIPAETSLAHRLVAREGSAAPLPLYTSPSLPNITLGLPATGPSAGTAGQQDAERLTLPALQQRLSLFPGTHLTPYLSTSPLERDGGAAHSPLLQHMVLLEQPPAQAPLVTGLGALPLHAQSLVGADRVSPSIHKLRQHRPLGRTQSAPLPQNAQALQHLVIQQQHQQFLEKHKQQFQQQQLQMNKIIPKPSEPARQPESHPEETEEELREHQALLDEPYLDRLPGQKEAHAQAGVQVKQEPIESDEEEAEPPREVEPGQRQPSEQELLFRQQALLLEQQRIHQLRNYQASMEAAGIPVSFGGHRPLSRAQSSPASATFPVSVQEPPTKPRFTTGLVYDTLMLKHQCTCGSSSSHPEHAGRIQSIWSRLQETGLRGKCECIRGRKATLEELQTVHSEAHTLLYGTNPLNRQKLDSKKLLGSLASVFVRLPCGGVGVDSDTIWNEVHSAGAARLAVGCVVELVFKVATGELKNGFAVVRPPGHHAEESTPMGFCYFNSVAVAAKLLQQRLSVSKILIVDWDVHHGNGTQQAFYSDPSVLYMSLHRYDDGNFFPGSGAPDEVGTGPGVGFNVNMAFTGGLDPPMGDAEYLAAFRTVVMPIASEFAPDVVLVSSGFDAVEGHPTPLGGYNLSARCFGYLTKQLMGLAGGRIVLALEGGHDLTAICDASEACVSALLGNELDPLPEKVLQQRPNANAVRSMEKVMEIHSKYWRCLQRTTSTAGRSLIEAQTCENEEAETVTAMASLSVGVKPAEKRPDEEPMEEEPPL

B1: 3HA tagged ENIGMA fragment containing the linker and first LIM domain (other, mouse, UniProt Q3TJD7 86-338, looked up)
chain: PVQSKPQKALTPPADPPRYTFAPSASLNKTARPFGAPPPTDSTLRQNGQLLRQPVPDASKQRLMEDTEDWRPRPGTGQSRSFRILAHLTGTEFMQDPDEEFMKKSSQVPRTEAPAPASTIPQESWPGPTTPSPTSRPPWAVDPAFAERYAPDKTSTVLTRHSQPATPTPLQNRTSIVQAAAGGGTGGGSNNGKTPVCHQCHKIIRGRYLVALGHAYHPEEFVCSQCGKVLEEGGFFEEKGAIFCPSCYDVRYA
notes: domain: linker and first LIM domain; not shown: 3HA tag
As to B1, the binding result is “no binding”.

B2: 3HA tagged ENIGMA fragment containing the PDZ domain and linker (other, mouse, UniProt Q3TJD7 1-279, looked up)
chain: MDSFKVVLEGPAPWGFRLQGGKDFNVPLSISRLTPGGKAAQAGVAVGDWVLNIDGENAGSLTHIEAQNKIRACGERLSLGLSRAQPVQSKPQKALTPPADPPRYTFAPSASLNKTARPFGAPPPTDSTLRQNGQLLRQPVPDASKQRLMEDTEDWRPRPGTGQSRSFRILAHLTGTEFMQDPDEEFMKKSSQVPRTEAPAPASTIPQESWPGPTTPSPTSRPPWAVDPAFAERYAPDKTSTVLTRHSQPATPTPLQNRTSIVQAAAGGGTGGGSNNGKT
notes: domain: PDZ domain and linker; not shown: 3HA tag
Regarding B2, the binding result is reported as “no binding”.
